The target in the assay is human serum albumin (HSA) (human, UniProt P02768 25-609). Nature of the assay: native polyacrylamide gel (10%) shift after 60 min incubation at room temperature at the stated HSA:AAD molar ratios.
Sequence of human serum albumin (HSA) (P02768 25-609 limits assumed): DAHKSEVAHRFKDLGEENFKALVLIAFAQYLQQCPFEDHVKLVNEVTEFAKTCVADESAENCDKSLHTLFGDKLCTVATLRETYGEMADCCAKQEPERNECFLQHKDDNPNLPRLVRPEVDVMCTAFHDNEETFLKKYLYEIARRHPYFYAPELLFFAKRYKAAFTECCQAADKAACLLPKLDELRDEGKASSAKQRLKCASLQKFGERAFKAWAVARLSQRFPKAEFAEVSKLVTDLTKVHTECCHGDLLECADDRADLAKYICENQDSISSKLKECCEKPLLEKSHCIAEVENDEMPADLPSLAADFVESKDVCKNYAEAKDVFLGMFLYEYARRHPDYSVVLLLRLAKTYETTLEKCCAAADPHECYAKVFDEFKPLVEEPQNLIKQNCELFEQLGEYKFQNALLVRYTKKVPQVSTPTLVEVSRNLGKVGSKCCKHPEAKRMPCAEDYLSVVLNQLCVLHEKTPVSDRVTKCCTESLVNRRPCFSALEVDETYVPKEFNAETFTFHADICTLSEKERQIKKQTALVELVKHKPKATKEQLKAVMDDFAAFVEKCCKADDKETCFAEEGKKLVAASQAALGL

B1: albumin-binding arginine deiminase (AAD) fusion protein His-ABD-PolyN-ADI (enzyme)
chain: MHHHHHHDEAVDANSLAEAKVLANRELDKYGVSDYYKNLINNAKTVEGVKALIDEILAALPSGSNNNNNNGSGGSVFDSKFKGIHVYSEIGELESVLVHEPGREIDYITPARLDELLFSAILESHDARKEHKQFVAELKANDINVVELIDLVAETYDLASQEAKDKLIEEFLEDSEPVLSEEHKVVVRNFLKAKKTSRELVEIMMAGITKYDLGIEADHELIVDPMPNLYFTRDPFASVGNGVTIHYMRYKVRQRETLFSRFVFSNHPKLINTPWYYDPSLKLSIEGGDVFIYNNDTLVVGVSERTDLQTVTLLAKNIVANKECEFKRIVAINVPKWTNLMHLDTWLTMLDKDKFLYSPIANDVFKFWDYDLVNGGAEPQPVENGLPLEGLLQSIINKKPVLIPIAGEGASQMEIERETHFDGTNYLAIRPGVVIGYSRNEKTNAALEAAGIKVLPFHGNQLSLGMGNARCMSMPLSRKDVKW
Regarding B1, the binding result is “binds”.

Values taken from USRE48805 (VISION GLOBAL, dated 2021).
